Measured values: patent US20070116702A1, “Survival promoting NCAM binding and MCAM ligand binding compounds” (priority 2001, published 2007)
Positions count from the first letter of the chain named. No end group written: not given here.

B1: NCAM(20-208) first mutant: Glu-30, Glu-35 and Lys-37 substituted with Ala (receptor, UniProt P13596 20-208, looked up)
chain: LQVDIVPSQGAISVGASAFFLCQVAGDAKDKDISWFSPNGEKLSPNQQRISVVWNDDDSSTLTIYNANIDDAGIYKCVVTAEDGTQSEATVNVKIFQKLMFKNAPTPQEFKEGEDAVIVCDVVSSLPPTIIWKHKGRDVILKKDVRFIVLSNNYLQIRGIKKTDEGTYRCEGRILARGEINFKDIQVIV
B2: NCAM(20-208) second mutant: Arg-192, Arg-196 and Glu-198 substituted with Ala (receptor, UniProt P13596 20-208, looked up)
chain: B1 chain with A11E, A16E, A18K, R173A, R177A, E179A
B3: NCAM(20-208) third mutant: Glu-30, Glu-35, Lys-37, Arg-192, Arg-196 and Glu-198 substituted with Ala (receptor, UniProt P13596 20-208, looked up)
chain: B1 chain with R173A, R177A, E179A
B4: D4d, tetrameric dendrimer of the D4 peptide (peptide)
peptide: ARALNWGAKPK
modifications: also: tetrameric dendrimer: four monomers coupled to a backbone of three lysines, synthesised on Rink amide linker
notes: Immobilised on a CM5 sensor chip in the BIAlite experiment; also called dendrimer peptide D4d
B5: Ig1: Recombinant Ig1 domain of rat NCAM produced in Pichia pastoris (protein)
chain: LQVDIVPSQGEISVGESKFFLCQVAGDAKDKDISWFSPNGEKLSPNQQRISVVWNDDDSSTLTIYNANIDDAGIYKCVVTAEDGTQSEATVNVKIFQ
B6: C3d, tetrameric dendrimer of the C3 peptide (peptide)
peptide: ASKKPKRNIKA
modifications: also: tetrameric dendrimer: four monomers coupled to a backbone of three lysines, synthesised on Rink amide linker
notes: Immobilised on a CM5 sensor chip in the BIAlite experiment; also called dendrimer peptide C3d
B7: D3d, tetrameric dendrimer of the D3 peptide (peptide)
peptide: AKKERQRKDTQ
modifications: also: tetrameric dendrimer: four monomers coupled to a backbone of three lysines, synthesised on Rink amide linker
notes: Immobilised on a CM5 sensor chip in the BIAlite experiment; also called dendrimer peptide D3d

Assays:
[1] = tested on: Hippocampal cells; test: Aggregate cell cultures of hippocampal cells (aggregates counted after 24 h); assay type: cell-based, rat; details: ligand present during the aggregation of cells; quantified 24 h after seeding
Method: A variety of suitable fragments and variants of NCAM has been discussed above. To be able to identify candidate ligands capable of stimulating NCAM function, where the NCAM function means the function of the NCAM molecule, the inventors have established a simple cell culture system (aggregate cell cultures) that permits a quantitative evaluation of the effect of various ligands. Hippocampal cells are provided from rat embryos. The cells are grown in a defined medium and dissociated cells are seeded in microtiter plates. After 24 h, the, amount of aggregates are counted. Compounds to be tested are added to the cell suspension immediately before seeding of the cells in micro-wells. When NCAM Ig1 binding ligands are present during the aggregation of cells, smaller, but more numerous cell aggregates are seen when quantified 24 h after seeding of the cells. The inhibiting effect of the ligands results in a blockage of the formation of large aggregates from many small aggregates as the adhesion, properties of NCAM are blocked. Thus, small but more numerous cell aggregates are seen in the presence of active ligands.

[2] = target: T1, recombinant NCAM Ig1 domain produced in Pichia pastoris (Ig1 PP) (rat, UniProt P13596 20-116, limits assumed); test: one-bead one-peptide library stained with biotinylated NCAM Ig1
T1 construct: domain: Ig1; unlabelled analyte in the BIAlite experiment; also called NCAM Ig1-PP
Method: The synthesis of the resin-bound one-bead one-peptide library was performed using the portioning, mix procedure (Furka et al., 1991). Polyethylene syringes served as reaction vessels throughout the synthesis and the final TFA-deprotection. TentaGel resin (Rapp Polymere, Tübingen, Germany) was divided into 18 aliquots and the protein L-amino acids except cysteine and histidine were used. Side-chains were protected with the following protecting groups: Asp(tBu), Glu(tBu), Tyr(tBu), Ser(tBu), Thr(tBu), Asn(trt), Gln(trt), Lys(Boc), Trp(Boc), Arg(pmc). Fmoc-protected amino acids (5 eq; Milligen or Novabiochem) were coupled overnight using 5eq DIC and 5eq HOBt. Removal of the Fmoc group was accomplished with 25% piperidine in DMF for 20 min. The side chain protecting groups were removed with […], 5% anisole, 5% H₂O, 5% EDT, 2.5% thioanisole at mom temperature for 2.5 h followed by washing with tetrahydrofuran and 1% HOAc and the resin was subsequently lyophilised. Screenings were done by incubating 2 ml resin (equivalent to ca. 10⁶ beads) with biotinylated receptor in Tris/HCl buffer (Tris/HCl 0.025 M, pH 7.2, 0.25 M NaCl, 0.1 % (w/v) Tween 20) containing 0.1% Gelatin (Sigma) for 60 min. Subsequently the resin was washed in Tris/HCl buffer and incubated with avidin-alkaline phosphatase (diluted 1:20000) for 30 min. The substrates BCIP/NBT (Sigma) were added as described by Lam et al. (1992) and stained beads were removed for micro sequencing. The library was screened with the receptor NCAM Ig1-PP (10 mg/ml).

[3] = target: the molecule itself; test: gel filtration chromatography, homophilic dimer formation
[4] = target: T1, recombinant NCAM Ig1 domain produced in …; test: SPR (BIAlite), dendrimer peptide immobilised on CM5 chip, Ig1 in solution
Method: Real-time biomolecular interaction analysis was performed using a BIAlite instrument (Pharmacia Biosensor AB, Sweden). All experiments were performed at 25° C. using Hepes buffered saline (HBS: 10 mM Hepes pH 7.4, 150 mM NaCl, 3.4 mM EDTA, 0.005% v/v Surfactant P20 (Pharmacia Biosensor, Sweden) as running buffer. The flow rate was […]. Dendrimer peptides C3d, D3d and D4d (four peptide-monomers coupled to a backbone consisting of three lysines) were immobilised on a sensor chip CM5 (Pharmacia Biosensor AB, Sweden) using the following procedure: the chip was activated by […] 0.05 M N-hydroxysuccinimide, 0.2 M N-ethyl-N′-(dimethylaminopropyl)carbodiimide; peptides were immobilised using […] peptide solution in HBS at a concentration of 60 μg/ml; finally the chip was blocked by 35 μl 1 M ethanolamine hydrochloride pH 8.5. Binding of Ig1 to dendrimer peptides: […] of Ig1 or Ig1I at the indicated concentrations were applied. The chip was regenerated by two […] pulses of 5 mM NaOH. Two independent experiments were performed. The results confirmed that C3d, D3d and D4d bind to the NCAM Ig1 domain.

Molecule	binding result [2]	further results
GRILARGEINFK (listed as Homo sapiens) [Ig2-p]	–	inhibition of aggregation of hippocampal cells [1]: inhibited aggregation
AKKERQRKDTQ (listed as Homo sapiens) [D3]	–	inhibition of aggregation of hippocampal cells [1]: inhibited aggregation
GEISVGESKFFL (listed as Homo sapiens) [Ig1-p]	–	inhibition of aggregation of hippocampal cells [1]: inhibited aggregation
ARALNWGAKPK (listed as Homo sapiens) [D4]	–	inhibition of aggregation of hippocampal cells [1]: inhibited aggregation
AKYVLIPIRIS [SEQ ID NO 5]	binds	–
AKRNGPLINRI [SEQ ID NO 10]	binds	–
AEGGKKKKMRA [SEQ ID NO 19]	binds	–
B1	–	binding result [3]: no binding
B2	–	binding result [3]: no binding
B3	–	binding result [3]: no binding
AKSRKGNSSLM [SEQ ID NO 21]	binds	–
AQMGRQSIDRN [SEQ ID NO 18]	binds	–
ARQKTMKPRRS [SEQ ID NO 12]	binds	–
B4	–	binding result [4]: binds
ATNKKTGRRPR [SEQ ID NO 9]	binds	–
ARKSRDMTAIK [SEQ ID NO 22]	binds	–

Molecule	binding result [2]	further results
AKRSVQKLDGQ [SEQ ID NO 11]	binds	–
ASKKPKRNIKA [C3 peptide (SEQ ID NO:1)]	binds	–
AGDYNPDLDR [SEQ ID NO 13]	binds	–
B5	–	inhibition of aggregation of hippocampal cells [1]: inhibited aggregation
AGSAVKLKKKA [SEQ ID NO 4]	binds	–
AYYLIVRVNRI [SEQ ID NO 8]	binds	–
APKLDRMLTKK [SEQ ID NO 16]	binds	–
B6	–	binding result [4]: binds
AKKEKPNKPND [SEQ ID NO 17]	binds	–
AKKKEQKQRNA [SEQ ID NO 20]	binds	–
ARKTRERKSKD [SEQ ID NO 14]	binds	–
AKKERQRKDTQ [D3 peptide (SEQ ID NO:2)]	binds	–
B7	–	binding result [4]: binds
ASTKRSMQGI [SEQ ID NO 6]	binds	–
ARALNWGAKPK [D4 peptide (SEQ ID NO:3)]	binds	–
ASQAKRRKGPR [SEQ ID NO 15]	binds	–
